Residue numbers refer to the chain shown, from its start.
B1: Ab16 (antibody, human IgG1, V domains shown)
VH: EVQLVQSGAEVKKPGATVKISCKVSGYSFITYWISWVQQAPGKGLEWMGAIDPSDSDARYSPSFQGRVTITADTSTDTAYMELSSLRSEDTAVYYCAKSDPGYSGYSLLYGFDSWGQGTLVTVSS
VL: DVVMTQSPLSLPVTLGQPASISCRSSQSLVQRNGNTYLSWFQQRPGQPPRLLIYQVSNRYSGVPDRFSGSGSGTDFTLKISRVEAEDVGVYYCGQGAHLPLTFGQGTKVEIK
B2: Ab37 (antibody, human IgG1, V domains shown)
VH: B1 VH with S28T, T74K
VL: B1 VL with V2I, P48S
B3: Ab10 (antibody, human IgG1, V domains shown)
VH: B1 VH with S28T
VL: B1 VL with V2I
B4: Ab55 (antibody, human IgG1, V domains shown)
VH: EVQLVQSGAEVKKPGESLKISCKISGYSFITYWISWVRQMPGKGLEWMGAIDPSDSDARYSPSFQGQVTISADKSISTAYLQWSSLKASDTAMYYCAKSDPGYSGYSLLYGFDSWGQGTLVTVSS
VL: B1 VL with F41Y
B5: Ab49 (antibody, human IgG1, V domains shown)
VH: B4 VH with I24G
VL: B1 VL with V2I, F41Y
B6: Ab59 (antibody, human IgG1, V domains shown)
VH: B4 VH
VL: B1 VL with V2I, F41Y
B7: Ab46 (antibody, human IgG1, V domains shown)
VH: B4 VH with I24G
VL: B1 VL
B8: Ab42 (antibody, human IgG1, V domains shown)
VH: B4 VH with I24G
VL: B1 VL with V2I, S7T, L11S, F41Y, S72A
B9: Ab47 (antibody, human IgG1, V domains shown)
VH: B4 VH with I24G
VL: B1 VL with V2I, P48S
B10: Ab48 (antibody, human IgG1, V domains shown)
VH: B4 VH with I24G
VL: B1 VL with V2I, F41Y, P48S
B11: Ab52 (antibody, human IgG1, V domains shown)
VH: B4 VH
VL: B1 VL with V2I, S7T, L11S, F41Y, S72A
B12: Ab60 (antibody, human IgG1, V domains shown)
VH: B4 VH
VL: B1 VL with V2I
B13: Ab45 (antibody, human IgG1, V domains shown)
VH: B4 VH with I24G
VL: B1 VL with F41Y
B14: Ab56 (antibody, human IgG1, V domains shown)
VH: B4 VH
VL: B1 VL
B15: Ab58 (antibody, human IgG1, V domains shown)
VH: B4 VH
VL: B1 VL with V2I, F41Y, P48S
B16: Ab57 (antibody, human IgG1, V domains shown)
VH: B4 VH
VL: B1 VL with V2I, P48S
B17: Ab6 Fab (Fab, V domains shown)
VH: B1 VH with S28T
VL: B1 VL
B18: Ab44 Fab (Fab, V domains shown)
VH: B4 VH with I24G
VL: B1 VL with F41Y, P48S
B19: Ab37 Fab (Fab, V domains shown)
VH: B1 VH with S28T, T74K
VL: B1 VL with V2I, P48S
B20: Ab4 Fab (Fab, V domains shown)
VH: B1 VH with S28T
VL: B1 VL with F41Y, P48S
B21: Ab16 Fab (Fab, V domains shown)
VH: B1 VH
VL: B1 VL
B22: Ab36 Fab (Fab, V domains shown)
VH: B1 VH with S28T, T74K
VL: B1 VL
B23: Ab10 Fab (Fab, V domains shown)
VH: B1 VH with S28T
VL: B1 VL with V2I
B24: Ab47 Fab (Fab, V domains shown)
VH: B4 VH with I24G
VL: B1 VL with V2I, P48S
B25: Ab61 Fab (Fab, V domains shown)
VH: B1 VH with S28T
VL: B1 VL with G34A, F41Y, P48S
B26: Ab54 Fab (Fab, V domains shown)
VH: B4 VH
VL: B1 VL with F41Y, P48S
B27: Ab46 Fab (Fab, V domains shown)
VH: B4 VH with I24G
VL: B1 VL

Target: human NGF (R&D system) (human, UniProt P01138 122-241)
Sequence (P01138 122-241 limits assumed): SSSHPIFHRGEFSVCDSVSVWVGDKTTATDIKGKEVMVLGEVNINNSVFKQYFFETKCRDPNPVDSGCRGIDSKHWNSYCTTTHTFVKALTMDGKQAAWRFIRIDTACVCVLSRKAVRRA
Assay: cell-based or functional assay

Binder | TF1 Cell Proliferation Inhibition Assay IC50 [nM]
B1 | 0.3
B2 | 0.257
B3 | 0.254
B4 | 0.184

Target: recombinantly produced human-NGF (human, UniProt P01138 122-241, limits assumed)
Sequence (P01138 122-241 limits assumed): as above
Assay: ELISA, human NGF coated, IgG titrated
Protocol: NGF binding ELISA assay: In human NGF binding ELISA, Corning 3366 high binding 96 well plates were coated with recombinantly produced human-NGF at 1 μg per ml, 50 μl/well in 1×PBS, and incubated overnight at 4° C. The plates were washed and blocked with 250 μl of 1×PBS/1% BSA at least 30 minutes at room temperature. 50 μl of culture supernatants, after 1:1 diluted by the PBS/BSA diluent, or the purified antibodies diluted serially from a certain concentration with the diluent, were added per well, and incubated at 37° C. for 2 hours. After washing, a secondary antibody, goat anti-human IgG Fc AP (Southern biotech) was applied at a dilution of 1:3000 in PBS/BSA. The plates were incubated for 1 hour at RT and washed. After adding the PNPP substrate, the ODs at 405 nm were read.
NGF binding ELISA assay: NGF binding ELISA assay was performed as described in Example 1.

Binder | EC50 [ng/mL]
B1 | 0.0173
B5 | 0.00957
B6 | 0.0122
B7 | 0.0169
B8 | 0.0132
B9 | 0.00942
B10 | 0.0156
B11 | 0.0206
B2 | 0.0317
B12 | 0.00896
B3 | 0.0134
B13 | 0.0166
B14 | 0.0145
B4 | 0.0185
B15 | 0.0153
B16 | 0.011

Target: T1, human NGF-Fc4 (IgG4-Fc) (human, UniProt P01138 122-241, limits assumed)
T1 construct: not shown: human IgG4 Fc
T1 sequence (P01138 122-241 limits assumed): as above
Assay: competition ELISA: antibody pre-incubated with human NGF-Fc4, binding to coated TrkA-Fc
Protocol: TrkA inhibition ELISA assay: The TrkA inhibition ELISA assay was designed to identify the anti-NGF antibodies that have the capability of blocking NGF binding to its receptor TrkA. In this assay, human TrkA-Fc (IgG1-Fc, Sinobiological) was coated at 1 μg/ml in the 96-well plates and incubated overnight at 4° C. Antibodies, from cell culture supernatants or after purified, in different dilutions, were pre-incubated with human NGF-Fc4 (IgG4-Fc) at a final concentration of 70 ng/mL for 2 hours in 37° C. A total of 50 μl of the reaction mixtures were then transferred into the TrkA-Fc coated 96-well plates and incubated in room temperature for 2 hours. After washing, a secondary mouse anti-human IgG4-AP (Southern biotech) was added at a dilution of 1:1000 After one hour in room temperature, the plates were washed, and after adding PNPP substrate, ODs at 405 nm were read.
TrkA inhibition ELISA assay: The optimized anti-NGF antibodies Ab4, Ab6, Ab10, Ab16, Ab36, Ab37, Ab44, Ab45, Ab46, Ab47, Ab48, Ab49, Ab52, Ab54, Ab55, Ab56, Ab57, Ab58, Ab59, Ab60, Ab61 and the reference antibody Tanezumab (Pfizer), a humanized antibody from mouse hybridoma were further analyzed for their abilities to block NGF binding to its receptor TrkA. TrkA inhibition assay was performed as described in Example 1.

Binder | IC50 [ng/mL]
B1 | 73.5
B5 | 87.8
B6 | 74.7
B7 | 53.3
B8 | 77.3
B9 | 66.2
B10 | 93.5
B11 | 70.2
B2 | 132
B12 | 43.4
B3 | 80.4
B13 | 89.8
B14 | 66.5
B4 | 75.7
B15 | 80
B16 | 73.2

Target: T2, human NGF-Fc protein (human, UniProt P01138 122-241, limits assumed)
T2 construct: not shown: human IgG1 Fc or IgG4 Fc
T2 sequence (P01138 122-241 limits assumed): as above
Assay: BLI (Octet Red), human NGF-Fc captured on anti-human Fc sensors, Fab in solution
Protocol: FortéBio BioLayer Interferometry (BLI) technology was chosen as the method for affinity determination by using Octet Red system. NGF is a homodimer protein in its nature form. […] For the purpose of affinity measurement, monovalent Fab fragments of IgG were prepared using Fab preparation kit (Pierce).
After purification, the Fab concentration was determined by OD280 according to the extinction coefficient calculated based on its sequence. […] For each assay, an array of Fab concentrations from about 50 nM to less than 1 nM in kinetic buffer (PALL) were tested by NGF-Fc sensors with the association time of 300 seconds and dissociation time of 1200 seconds. The kinetic data were analyzed using program Data Analysis HT 10.0 according to the manual. All the tests were repeated at least twice in independent assays.

Binder | Kd [nM] | koff [s⁻¹] | kon [M⁻¹ s⁻¹]
B17 | 0.866 | 6.33e-05 | 73100
B18 | 0.704 | 5.9e-05 | 83800
B19 | 3.25 | 5.27e-05 | 16200
B20 | 0.0746 | 2.99e-05 | 401000
B21 | 1.37 | 7.11e-05 | 51700
B22 | 0.258 | 7.35e-05 | 285000
B23 | – | 7.48e-05 | –
B24 | 3.48 | 0.000142 | 40700
B25 | 0.139 | 5.13e-05 | 370000
B26 | 0.148 | 4.43e-05 | 300000
B27 | 2.89 | 0.000107 | 37100
